The values that follow come from patent US20200123558A1 (UNIVERSITY OF SASKATCHEWAN AND NATIONAL RESEARCH COUNCIL OF …, published 2020).

Where two headings read alike, the source gives them in different places.

What all share (assay): yeast 2-hybrid
Experiment [1] concerns the target T1, Apc5 (yeast, UniProt Q08683 1-685, limits assumed).
T1 construct: Expressed as a Y2H bait fusion; also called Apc5 bait
T1 sequence (looked up): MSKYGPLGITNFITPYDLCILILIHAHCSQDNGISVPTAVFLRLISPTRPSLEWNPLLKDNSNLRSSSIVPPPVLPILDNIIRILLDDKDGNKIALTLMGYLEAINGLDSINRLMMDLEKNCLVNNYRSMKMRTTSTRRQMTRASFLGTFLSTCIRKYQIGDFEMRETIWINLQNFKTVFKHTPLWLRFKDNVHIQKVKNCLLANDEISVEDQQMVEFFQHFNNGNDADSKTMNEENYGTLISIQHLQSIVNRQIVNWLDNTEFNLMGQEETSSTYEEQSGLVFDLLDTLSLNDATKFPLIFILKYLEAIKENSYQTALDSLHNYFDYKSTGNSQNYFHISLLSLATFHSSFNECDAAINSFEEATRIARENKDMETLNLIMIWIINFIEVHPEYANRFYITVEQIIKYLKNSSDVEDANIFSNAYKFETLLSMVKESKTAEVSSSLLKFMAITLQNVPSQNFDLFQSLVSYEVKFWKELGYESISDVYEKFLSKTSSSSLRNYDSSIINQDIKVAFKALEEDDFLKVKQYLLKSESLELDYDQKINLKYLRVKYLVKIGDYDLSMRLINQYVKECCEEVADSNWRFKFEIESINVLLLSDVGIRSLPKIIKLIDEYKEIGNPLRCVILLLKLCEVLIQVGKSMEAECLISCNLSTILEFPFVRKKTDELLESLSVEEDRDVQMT

Experiment [2] concerns the target T2, Apc10 (yeast, UniProt P53068 1-250, limits assumed).
T2 construct: Expressed as a Y2H bait fusion; also called yeast Apc10 APC subunit; Apc10 bait
T2 sequence (looked up): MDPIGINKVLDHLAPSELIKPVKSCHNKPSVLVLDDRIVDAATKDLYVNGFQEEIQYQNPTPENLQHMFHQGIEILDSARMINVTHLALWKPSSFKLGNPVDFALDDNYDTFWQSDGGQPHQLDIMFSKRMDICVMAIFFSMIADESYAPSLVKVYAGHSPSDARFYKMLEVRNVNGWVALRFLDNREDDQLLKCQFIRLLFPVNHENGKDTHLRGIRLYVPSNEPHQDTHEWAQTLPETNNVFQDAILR

For experiment [3], the target named is T2, Apc10. The source holds these as a separate data set.

B1: peptide C2-4B (peptide)
peptide: RMPQWWQWMWV
modifications: Shown as the variable loop of the Trx scaffold on a Y2H prey vector. The letters do not carry this.
notes: also called 11-3; C2-4B aptamer; not shown: TrxA scaffold and Y2H fusion domain
For B1, the binding result in experiment [1] is reported as “binds”.

B2: peptide 1-8 (peptide)
peptide: GRMLMTYLMYFMVLWVPRPWGPPL
modifications: Displayed in the assay as the variable loop of a TrxA scaffold fused to a Y2H prey domain; carrier not written.
notes: not shown: TrxA (thioredoxin) scaffold halves flanking the loop and the Y2H prey fusion domain
As to B2, the binding result in experiment [2] is “binds”.

B3: peptide C43-4 (peptide)
peptide: NGSSHNDLRVRRLTLISRLC
modifications: Shown in the assay as the variable loop of a Trx scaffold fused to a Y2H prey domain. The letters do not carry this.
notes: also called C43-4 aptamer; Htz1-like peptide; not shown: Thioredoxin (TrxA) scaffold flanking the loop and the Y2H prey fusion domain
For the molecule B3, in experiment [2], the binding result is reported as “binds”.

B4: peptide C43-4-3 (peptide, not shown: large carriers)
peptide: NGSSHNDARVRRLTLISRLC
modifications: Presumably shown in the Trx scaffold like its parent. The letters do not carry this.
notes: C43-4 with leucine 8 replaced by alanine; also called C43-L8A
For the molecule B4, the binding result in experiment [3] is reported as “binds”.

B5: peptide 24-1 (peptide)
peptide: SKWTWRMCMSWTVDRFAPVPWP
modifications: Displayed in the assay as the variable loop of a TrxA scaffold fused to a Y2H prey domain; carrier not written.
notes: as for B2
With B5, the binding result in experiment [1] is reported as “binds”.

B6: peptide 50-1 (peptide)
peptide: RRCLSIRTENLAWEGKFLRV
modifications: Displayed in the assay as the variable loop of a TrxA scaffold fused to a Y2H prey domain; carrier not written.
notes: as for B2
Turning to B6, in experiment [2], the binding result is listed as “binds”.
